Measurements: doi:10.1101/2024.06.05.597462 (bioRxiv, 2024)
Where two headings read alike, the source gives them in different places.

Experiments:
Assay in all cases: fluorescence correlation spectroscopy
Arc NTD-linker-SNAP = target: Arc NTD-linker-SNAP
[1] = target: the molecule itself
[2] = target: the molecule itself; remark: listed apart in the source

Arc NTD-linker-SNAP (domain or fragment)
stoichiometry N (Arc NTD-linker-SNAP): 4

B1: Arc-FL-C-EGFP (natural protein)
chain: MELDHMTTGGLHAYPAPRGGPAAKPNVILQIGKCRAEMLEHVRRTHRHLLTEVSKQVERELKGLHRSVGKLENNLDGYVPTGDSQRWKKSIKACLCRCQETIANLERWVKREMHVWREVFYRLERWADRLESMGGKYPVGSEPARHTVSVGVGGPEPYCQEADGYDYTVSPYAITPPPAAGELPEQESVGAQQYQSWVPGEDGQPSPGVDTQIFEDPREFLSHLEEYLRQVGGSEEYWLSQIQNHMNGPAKKWWEFKQGSVKNWVEFKKEFLQYSEGTLSREAIQRELDLPQKQGEPLDQFLWRKRDLYQTLYVDAEEEEIIQYVVGTLQPKFKRFLRHPLPKTLEQLIQRGMEVQDGLEQAAEPSVTPLPTEDETEALTPALTSESVASDRTQPE
stoichiometry N [1]: 4.3 | stoichiometry N [2]: 627
